Measured values as given in the supplement of paper PMC12338614.

B1: library; numbered along this chain (parent)
chain: MEVVDPQQLGMFTEGELMSVGMDTFIHRIDSTEVIYQPRRKRAKLIGKYLMGDLLGEGSYGKVKEVLDSETLCRRAVKILKKKKLRRIPNGEANVKKEIQLLRRLRHKNVIQLVDVLYNEEKQKMYMVMEYCVCGMQEMLDSVPEKRFPVCQAHGYFCQLIDGLEYLHSQGIVHKDIKPGNLLLTTGGTLKISDLGVAEALHPFAADDTCRTSQGSPAFQPPEIANGLDTFSGFKVDIWSAGVTLYNITTGLYPFEGDNIYKLFENIGKGSYAIPGDCGPPLSDLLKGMLEYEPAKRFSIRQIRQHSWFRKKHPPAEAPVPIPPSPDTKDRWRSMTVVPYLEDLHGADEDEDLFDIEDDIIYTQDFTVPGQVPEEEASHNGQRRGLPKAVCMNGTEAAQLSTKSRAEGRAPNPARKACSASSKIRRLSACKQQ

Variants of: B1
Assay: STK11 functional score (HeLa growth suppression), rescaled enrichment; synonymous median = 1, nonsense median = 0 (normalised score)
Settings: with HeLa; variant type: missense
Method: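 Deep mutational scan (TileSeq/POPCode codon randomisation) of full-length codon-optimised STK11 cDNA integrated at a Bxb1 landing pad (AAVS1) in HeLa cells. Restoring functional STK11 suppresses HeLa proliferation. Variant frequencies were measured by NGS before and after about two weeks of growth. The error-corrected enrichment log-ratio was rescaled so that synonymous median = 1 and nonsense median = 0, scores above 1 were compressed, and codon-level and three biological replicate scores were combined; error is the bootstrapped standard error. Scale: synonymous median = 1, nonsense median = 0; below 0.5 = damaging.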

STK11 functional score of substitutions, site by site:
I29: N 1.49, L 1, M 0.901, R 1.14, S 1.32, C 1.41, H 0.0412, V 1.68, E 1.4, G 1.16, T 0.53, W 1.63, F 0.117, Y 1.12
S31: L 1.02, F 0.829, M 0.857, I 1.41, W 0.921, H -0.108, D 1.28, G 1.57, Y 1.36, R 1.54, A 1.44, T 1.5, Q 1.37, V 1.58
D5: H 1.13, N 1.24
Q7: Y 1.22, D 1.33, I 1.61, G 0.637, A 1, S 1.02, E 1.27, L 1.25, M 0.16, V 1.37, P 0.819, W 1.1, C 1.55, R 1.38
M18: Q 1.28, T 1.62, I 0.652, L 1.08, C 0.902, G 1.36, W 0.78, D 0.127, Y 1.43, H 1.37, S 1.31, V 0.413, A 1.69, R 0.834, E 1.56, P 1.69
D30: V 0.22, S 1.7, A 1.7, T 1.62, Y -0.0227, E 1.13, H 1.31, W 1.3, R 1.69, G 1.52, C 1.44, L 1.07, P 1.67
M22: S 1.68, V 1.13, W 0.633, R 1.65, P 1.54, T 1.63, Y 1.57, H 1.67, G 1.07, A 1.21, F 1, C 1.21
H27: S 0.805, G 1.54, M 1.63, Q 0.792, L 1.35, R 1.03, Y 1.24, W 0.807, P 1.35, I 0.637, V 1.05, D 1.22, A 1.19
E33: G 0.902, D 1.09, F 0.855, W 0.795, M 1.44, S 0.81, A 1.32, P 1.4, T 1.69, L 1, Y 1.21, V 0.509, C 1.11, I 0.611, N 1.33
F25: I 1.69, C 1.63
V34: F 0.976, G 1.08, D 0.585, S 1.29, Y 1.05, C 0.884, I 1.1, A 1.03, L 1.13, R 0.822
P6: Y 1.67, T 0.874, I 1.61, R 1.29, S 1.52, L 0.99, F 0.754, C 1.1, E 1.24, G 0.386, D 1.66, W 0.513, A 0.942, V 1.5, M 0.679
G21: R 1.2, A 1.39
Y36: F 0.511, D 1.27, A 0.73, H 1.39, K 1.23, I 1.03, G 1.55, C 1.11
T24: R 0.782, G 1.43, C 1.22, S 1.15, Y 1.49, W 1.6, I 1.02, V 0.875, F 1.37, P 1.65, A 1.36, L 1.18, H 1.7
E14: K 0.385, F 1.13, Y 1.34, A 0.905, I 1.4, S 1.34, M 1.62, W 0.426, L 1, D 1.22, V 1.03, Q 1.35, P 1.65
G10: L 1.63, W 1.33, F 1.56, M 1.51, A 1.38, D 1.4, P 1.18, S 1.17, I 1.64, C 1.4, V 0.971, Y 1.18
Q8: L 1.5, K 0.838
M11: T 1.23, S 1.33, C 1.69, L 1.52, G 1.4, K 1.32, V 1.55, W 1.71
R28: L 0.637, P 0.47, I 1.41, A 1.52, G 0.685, C 0.873, V 1.03, W 1.18, S 1.59
D23: H 1.22, G 1.54
V20: P 1.43, I 1.22, R 1.56, T 1.6, C 0.242, G 1.43, A 1.29, D 1.59, S 1.46, L 0.787, H 1.44
E16: S 1.39, Q 1.16, K 0.291, F 1.42, A 1.53, C 1.38, L 1.15
T13: V 1.6, C 1.59, W 0.14, I 1.01, P 1.58, S 0.282, R 1.08, L 0.906, F 1.25, A 1.5, G 0.27, K 0.0631
L17: W 1.56, H 1.53, Q 1.71, D 1.7, F 0.925, V 1.35, A 1.68, T 1.62, G 1.53, Y 1.6, S 1.35, I 0.851, P 1.6, R 1.22, M 0.968
L9: S 1.37, I 1.37, W 1.49, R 1.12, F 1.06, M 1.01, H 1.67, P 1.43, N 1.67, Y 1.56, A 1.28, V 0.506, C 1.54
V4: T 1.06, I 1.43, R 1.32, E 1.09, W 1.22, S 0.996, G 1.03, H 1.65, L 0.909, P 1.03, F 0.964
I26: M 1.63
I35: N 1.02, R 1.61, E 1.66, L 1.11, V 0.925, W 1.61, T 1.34, D 1.67, P 1.69, M 0.908, S 1.49, C 1.39, F 0.949, G 1.25, A 1.43
T32: P 1.48, L 1.16, I 0.842, S 1.45, G 1.45, W 1.52, K 0.829, A 1.66, Y 0.666, V 1.41, H 1.68, R 1.36
G15: N 1.69, A 0.969, C 1.15, T 1.68, V 1.1, E 1.68, P 1.66, R 1.4, D 1.72, S 1.28, W 0.148, F 1.05, Y 1.58, L 1.48
S19: L 0.775, P 1.32, I 1.34, Y 1.01, W 1.43, A 0.891, E 1.45, F 0.945, K 1.53, G 1.64, H 0.00479, R 0.749, V 0.694
F12: L 1.23
